Experimental data published in patent US20260125455A1 (CLEVELAND CLINIC FOUNDATION, published 2026).

Experiments:
[1] = target: T1, human complement protein C6 (human, UniProt P13671 22-934); assay: BLI (Octet), full kinetics, C6 0.16-10 nM, 1:1 fit
T1 construct: also called human C6; C6 antigen
Procedure: For two of the best performing antibodies, C601HFKC4 HuG4K (aka 3713) and C601HFKI HuG4K, a full kinetic experiment was run using seven concentrations of C6 (0.16-10 nM) and association and dissociation steps of 20 min. The datasets were processed by subtracting the no antigen controls and the data were fitted to a 1:1 binding model. Binding curves giving Req/Rₘₐₓ ratios>90% or showing poor fitting were excluded from analysis.

[2] = target: T1, human complement protein C6; assay: C6-binding ELISA, A650 nm; sample 'PBS' (28 days at 37 C)
Procedure: For the serum stability assessment, samples of the purified candidate antibodies are normally incubated in mouse, human and cynomolgus serum at 37 C for 28 days and then tested in an antigen-binding ELISA. Since the anti-C6 antibodies are expected to bind to both human and cynomolgus C6 but not mouse C6, we anticipated that incubating in human or cynomolgus sera would reduce ELISA binding due to occupation of the antibody binding sites by C6 protein from the sera. Therefore, the chimeric and humanized antibodies were tested with human and mouse sera and with human sera from which the C6 protein has been depleted. […]
Binding ELISAs used Nunc Maxisorp 384-well plates, wells coated with C6, C5b,6 complex or C5 (Complement Technology Inc, TX) and goat anti-human IgG (Fab specific) peroxidase secondary antibodies (Sigma-Aldrich, A0293) for detection. For the thermal stability assay, IgG supernatants were diluted to their EC₈₀ concentration, incubated at different temperatures for 10 min and C6 binding measured by ELISA with the binding signal plotted against temperature. Kinetics of C6 binding were measured by capturing antibodies from supernatant samples using Protein G biosensors and performing a 20 min association step with 2.5 nM C6 and a 20 min dissociation step using the Octet RED96. […]

T1 sequence (P13671 22-934 limits assumed): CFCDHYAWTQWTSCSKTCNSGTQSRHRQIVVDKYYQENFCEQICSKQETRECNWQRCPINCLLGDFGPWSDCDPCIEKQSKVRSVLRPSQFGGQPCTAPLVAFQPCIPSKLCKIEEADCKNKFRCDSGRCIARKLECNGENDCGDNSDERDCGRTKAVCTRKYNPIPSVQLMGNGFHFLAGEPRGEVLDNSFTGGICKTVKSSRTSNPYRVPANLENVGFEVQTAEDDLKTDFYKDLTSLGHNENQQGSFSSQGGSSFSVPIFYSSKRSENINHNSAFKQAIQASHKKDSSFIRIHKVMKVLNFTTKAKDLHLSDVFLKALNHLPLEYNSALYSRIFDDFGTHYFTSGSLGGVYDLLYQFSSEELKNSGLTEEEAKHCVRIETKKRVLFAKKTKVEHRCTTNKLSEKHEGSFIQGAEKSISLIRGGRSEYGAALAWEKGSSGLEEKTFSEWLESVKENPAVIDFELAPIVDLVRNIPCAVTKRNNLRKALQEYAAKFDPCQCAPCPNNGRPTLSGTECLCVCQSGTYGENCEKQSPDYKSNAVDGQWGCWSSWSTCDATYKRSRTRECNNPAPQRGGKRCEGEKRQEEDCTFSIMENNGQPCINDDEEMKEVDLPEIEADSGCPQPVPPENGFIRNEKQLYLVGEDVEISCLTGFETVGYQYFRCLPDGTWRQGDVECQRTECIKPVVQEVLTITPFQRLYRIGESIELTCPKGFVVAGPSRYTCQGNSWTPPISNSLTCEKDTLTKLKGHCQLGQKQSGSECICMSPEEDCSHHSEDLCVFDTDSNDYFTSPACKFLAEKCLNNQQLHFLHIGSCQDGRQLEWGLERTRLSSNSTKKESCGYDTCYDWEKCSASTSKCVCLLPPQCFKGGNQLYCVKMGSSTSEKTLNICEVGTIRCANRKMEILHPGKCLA

Kd [1]: 0.11 nM
koff [1]: 0.00013 s⁻¹
kon [1]: 1.19e+06 M⁻¹ s⁻¹
EC50 [2]: 0.19 nM
B1: C601HFKC4 HuG4K (antibody, human IgG4 S228P, kappa)
heavy: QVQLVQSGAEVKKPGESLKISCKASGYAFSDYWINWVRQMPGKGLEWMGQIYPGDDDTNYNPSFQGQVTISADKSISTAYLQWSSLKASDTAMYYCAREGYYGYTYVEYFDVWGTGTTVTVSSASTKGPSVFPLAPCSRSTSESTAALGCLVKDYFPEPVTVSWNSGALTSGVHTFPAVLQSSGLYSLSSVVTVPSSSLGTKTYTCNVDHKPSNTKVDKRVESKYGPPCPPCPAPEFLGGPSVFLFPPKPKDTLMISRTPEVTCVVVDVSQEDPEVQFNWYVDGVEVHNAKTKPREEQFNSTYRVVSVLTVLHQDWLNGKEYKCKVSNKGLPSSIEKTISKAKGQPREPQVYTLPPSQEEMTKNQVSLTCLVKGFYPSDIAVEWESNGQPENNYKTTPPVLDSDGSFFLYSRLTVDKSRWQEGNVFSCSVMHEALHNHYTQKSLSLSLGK
light: QIVLTQSPATLSLSPGERATLSCRASSSVSYLHWYQQKPGQSPRLWIYDTSKRATGIPARFSGSGSGTDYTLTISSLEPEDFAVYYCQQWTSNPLTFGQGTKLEIKRTVAAPSVFIFPPSDEQLKSGTASVVCLLNNFYPREAKVQWKVDNALQSGNSQESVTEQDSKDSTYSLSSTLTLSKADYEKHKVYACEVTHQGLSSPVTKSFNRGEC
notes: also called 3713; clone 3713
